± gives the uncertainty stated by the source.
B1: library; numbered along this chain (parent)
chain: MEVVDPQQLGMFTEGELMSVGMDTFIHRIDSTEVIYQPRRKRAKLIGKYLMGDLLGEGSYGKVKEVLDSETLCRRAVKILKKKKLRRIPNGEANVKKEIQLLRRLRHKNVIQLVDVLYNEEKQKMYMVMEYCVCGMQEMLDSVPEKRFPVCQAHGYFCQLIDGLEYLHSQGIVHKDIKPGNLLLTTGGTLKISDLGVAEALHPFAADDTCRTSQGSPAFQPPEIANGLDTFSGFKVDIWSAGVTLYNITTGLYPFEGDNIYKLFENIGKGSYAIPGDCGPPLSDLLKGMLEYEPAKRFSIRQIRQHSWFRKKHPPAEAPVPIPPSPDTKDRWRSMTVVPYLEDLHGADEDEDLFDIEDDIIYTQDFTVPGQVPEEEASHNGQRRGLPKAVCMNGTEAAQLSTKSRAEGRAPNPARKACSASSKIRRLSACKQQ

Variants of: B1
Assay: STK11 functional score (HeLa growth suppression), rescaled enrichment; synonymous median = 1, nonsense median = 0 (normalised score)
Conditions: with HeLa; variant type: missense
Method in brief: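 Codon-randomised (POPCode) libraries of codon-optimised STK11 were integrated by Bxb1 at an AAVS1 landing pad in HeLa, in three regions each transfected three times. Integrants (BFP-negative, mCherry-positive) were FACS-sorted 4–5 days after electroporation and grown about two weeks; tiled gDNA amplicons were sequenced on NextSeq (~2 million reads per tile). The functional score is the wild-type-corrected post/pre-selection log ratio, rescaled to synonymous and nonsense medians, merged over codons and replicate transfections, with bootstrapped error.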

STK11 functional score: each site, then its substitutions
D365: G 1.55 ± 0.15, W 1.32 ± 0.24, V 1.14 ± 0.41, C 1.51 ± 0.17, Y 1.38 ± 0.14, R 1.61 ± 0.14, S 1.51 ± 0.26, F 0.997 ± 0.31, N 0.613 ± 0.79, P 1.56 ± 0.18, L 1.27 ± 0.14, H 1.34 ± 0.34, I 1.47 ± 0.25, A 0.704 ± 0.15, M 1.59 ± 0.14, E 0.893 ± 0.49
I360: Y 1.52 ± 0.2, S 1.11 ± 0.38, K 1.31 ± 0.4, V 1.49 ± 0.28, F 0.809 ± 0.12, M 0.866 ± 0.14, A 1.6 ± 0.15, G 1.44 ± 0.23, W 0.807 ± 0.13, L 1.13 ± 0.16, R 0.694 ± 0.27, N 1.11 ± 0.67, D 0.487 ± 0.42
Q364: H 0.685 ± 0.66, G 0.7 ± 0.2, W 0.791 ± 0.5, S 1.4 ± 0.19, D 0.845 ± 0.44, A 1.53 ± 0.15, E 0.253 ± 0.34, Y 1.53 ± 0.17, I 1.26 ± 0.47, M 0.768 ± 0.13, C 1.28 ± 0.32, R 1.1 ± 0.27, P 1.4 ± 0.27, V 1.11 ± 0.14, T 1.46 ± 0.14, L 1.33 ± 0.24, F 1.28 ± 0.27
P369: K 1.42 ± 0.26, T 1.53 ± 0.11, G 1.56 ± 0.26, A 1.43 ± 0.18, F 1.26 ± 0.39, H 0.727 ± 0.16, C 1.31 ± 0.39, L 1.13 ± 0.25, W 1.49 ± 0.22, D 1.61 ± 0.15, I 1.21 ± 0.27, Q 1.43 ± 0.23, S 1.51 ± 0.22, V 1.21 ± 0.15, Y 1.41 ± 0.32, R 1.44 ± 0.18
G370: D 1.24 ± 0.39, A 1.21 ± 0.58, F 1.5 ± 0.27, E 1.43 ± 0.25
I361: Y 0.312 ± 0.54, L 1.31 ± 0.35, R 1.53 ± 0.18, A 1.47 ± 0.26, K 0.624 ± 0.65, M 1.09 ± 0.39, F 0.984 ± 0.13, W 1.62 ± 0.16, D 1.5 ± 0.17, Q 0.616 ± 0.2, E 1.52 ± 0.26, H 1.21 ± 0.46, G 0.895 ± 0.29, S 1.46 ± 0.16, N 1.27 ± 0.24, T 1.58 ± 0.47, V 1.6 ± 0.24
T363: G 1.58 ± 0.24, Q 1.52 ± 0.15, F 0.261 ± 0.1, A 0.828 ± 0.21, N 1.03 ± 0.33, W 1.19 ± 0.16, D 1.45 ± 0.16, S 1.34 ± 0.17, V 1.2 ± 0.16, C 1.33 ± 0.48, M 1.59 ± 0.17, H 1.17 ± 0.46, Y 1.18 ± 0.44, E 1.6 ± 0.22, R 1.14 ± 0.24, P 1.34 ± 0.17, L 1.17 ± 0.15, I 0.824 ± 0.19
T367: P 1.41 ± 0.41, V 1.58 ± 0.26, F 1.36 ± 0.18, K 0.53 ± 0.42, S 1.51 ± 0.24, Y 1.54 ± 0.2, W 1.4 ± 0.32, L 1.46 ± 0.18, E 1.5 ± 0.15, G 1.6 ± 0.14, C 1.4 ± 0.41, I 1.38 ± 0.23, R 1.32 ± 0.27, A 1.39 ± 0.11
D359: T 1.57 ± 0.21, V 1.05 ± 0.17, W 1.07 ± 0.22, Y 1.13 ± 0.21, S 1.15 ± 0.22, R 1.52 ± 0.19
Y362: C 1.33 ± 0.15, A 1.42 ± 0.26, L 1.17 ± 0.24, S 1.25 ± 0.19, V 1.32 ± 0.36, W 1.31 ± 0.22, R 1.39 ± 0.15, T 1.6 ± 0.14, E 0.99 ± 0.45, N 1.47 ± 0.15, M 1.61 ± 0.21, H 1.44 ± 0.13, F 1.05 ± 0.12, P 1.58 ± 0.14, I 1.56 ± 0.15, G 1.15 ± 0.18
V368: T 1.56 ± 0.18, A 1.36 ± 0.22, F 0.859 ± 0.25, L 1.35 ± 0.23, R 0.87 ± 0.44, Y 1.54 ± 0.24, P 1.46 ± 0.19, E 1.42 ± 0.22, W 0.786 ± 0.6, C 1.58 ± 0.18, G 1.38 ± 0.2, H 1.08 ± 0.6, Q 0.833 ± 0.5, D 1.53 ± 0.14, I 1.53 ± 0.16, S 1.1 ± 0.19
F366: G 1.55 ± 0.13, E 1.6 ± 0.14, P 1.62 ± 0.14, D 1.6 ± 0.14, Y 1.24 ± 0.65, W 1.58 ± 0.14, C 1.09 ± 0.4, S 1.58 ± 0.13, M 1.48 ± 0.27, R 1.52 ± 0.17, L 1.16 ± 0.27, V 1.42 ± 0.54, A 0.753 ± 0.65, I 1.08 ± 0.28
